The target in one test is HLA-B*40:01. Put plainly: IEDB peptide-MHC binding, purified MHC/direct/fluorescence; filed as Kd, often an IC50 or EC50 that approximates it; ≥ and ≤ were set here for values at or beyond the usual limits of such assays.
The next test deals with HLA-A*80:01. The description is as above. The settings on record: source organism: West Nile virus.
The next test has as its target HLA-A*02:19. The description is as above.
The target in test [1] is HLA-A*02:01. Described as above.
Test [2] addresses HLA-B*07:02. The description is as above.
Test [3] deals with HLA-A*25:01. The description is as above. Conditions: source organism: West Nile virus strain PTRoxo.
The target in test [4] is HLA-A*29:02. The test is described as above. Conditions: source organism: West Nile virus strain PTRoxo.
Test [5] concerns the target HLA-B*51:01. The description is as above. The settings on record: source organism: West Nile virus strain PTRoxo.
The next test has as its target HLA-A*02:11. The test is described as above.
A further test addresses HLA-A*02:12. The description is as above.
For another test, the target named is HLA-A*02:03. Described as above.
Test [6] addresses HLA-B*58:01. Described as above.
The target of test [7] is HLA-A*01:01. Put plainly: IEDB peptide-MHC binding, purified MHC/competitive/fluorescence; filed as Kd, often an IC50 or EC50 that approximates it; ≥ and ≤ were set here for values at or beyond the usual limits of such assays. Conditions: source organism: West Nile virus.
For the next test, the target named is HLA-B*15:02. In words: IEDB peptide-MHC binding, purified MHC/direct/fluorescence; filed as Kd, often an IC50 or EC50 that approximates it; ≥ and ≤ were set here for values at or beyond the usual limits of such assays. The settings on record: source organism: dengue virus type 3.
The target in the next test is HLA-B*46:01. Described as above.
Another test concerns the target HLA-B*35:01. Put plainly: IEDB peptide-MHC binding, purified MHC/competitive/fluorescence; ≥ and ≤ were set here for values at or beyond the usual limits of such assays. Conditions: source organism: Pan troglodytes.
For a further test, the target named is HLA-B*40:02. Described as above. Conditions: source organism: Pan troglodytes.
Test [8] concerns the target HLA-A*24:02. The description is as above. Conditions: source organism: Pan troglodytes.
The target of test [9] is HLA-A*02:01. Described as above. The settings on record: source organism: Pan troglodytes.
In test [10] the target is HLA-B*07:02. Described as above. Conditions: source organism: Pan troglodytes.
For test [11], the target named is HLA-B*18:01. The test is described as above. Conditions: source organism: Pan troglodytes.
Test [12] has as its target HLA-A*03:01. Described as above. The settings on record: source organism: Pan troglodytes.
The target in the next test is HLA-A*31:01. The test is described as above. The settings on record: source organism: Pan troglodytes.
A further test concerns the target HLA-A*68:02. The description is as above. Conditions: source organism: Pan troglodytes.
Test [13] has as its target HLA-A*25:01. Described as above. The settings on record: source organism: Pan troglodytes.
For test [14], the target named is HLA-A*29:02. The test is described as above. Conditions: source organism: Pan troglodytes.
A further test deals with HLA-B*14:02. The description is as above. Conditions: source organism: Pan troglodytes.
The target in test [15] is HLA-B*08:01. Described as above. Conditions: source organism: Pan troglodytes.
Test [16] concerns the target HLA-B*51:01. Described as above. The settings on record: source organism: Pan troglodytes.
The next test addresses HLA-B*44:03. The description is as above. Conditions: source organism: Pan troglodytes.
For the next test, the target named is HLA-B*53:01. The test is described as above. Conditions: source organism: Pan troglodytes.
Test [17] concerns the target HLA-A*11:01. Described as above. The settings on record: source organism: Pan troglodytes.
The target of another test is HLA-B*37:01. The description is as above. The settings on record: source organism: Pan troglodytes.
The target of test [18] is HLA-A*01:01. The description is as above. The settings on record: source organism: Pan troglodytes.
The target in test [19] is HLA-B*58:01. Described as above. The settings on record: source organism: Pan troglodytes.
Another test deals with HLA-C*14:02. Put plainly: IEDB peptide-MHC binding, purified MHC/direct/fluorescence; filed as Kd, often an IC50 or EC50 that approximates it; ≥ and ≤ were set here for values at or beyond the usual limits of such assays. The settings on record: source organism: Homo sapiens.
The target in a further test is HLA-B*15:01. The description is as above. Conditions: source organism: Influenza A virus (A/tern/Australia/1/04(H2N5)).
Test [20] concerns the target HLA-A*24:02. The description is as above. The settings on record: source organism: Influenza A virus (A/tern/Australia/1/04(H2N5)).
Another test concerns the target HLA-A*02:16. The description is as above. The settings on record: source organism: Influenza A virus(A/swine/Henan/2/2004(H9N2)).
For test [21], the target named is HLA-B*18:01. The test is described as above. Conditions: source organism: Influenza A virus (A/tern/Australia/1/04(H2N5)).
Test [22] has as its target HLA-A*03:01. Described as above. Conditions: source organism: Influenza A virus (A/tern/Australia/1/04(H2N5)).
For test [23], the target named is HLA-B*08:01. Described as above. The settings on record: source organism: Influenza A virus (A/tern/Australia/1/04(H2N5)).
The target of a further test is HLA-B*27:05. The description is as above. Conditions: source organism: Influenza A virus (A/tern/Australia/1/04(H2N5)).
Test [24] concerns the target HLA-A*11:01. The description is as above. The settings on record: source organism: Influenza A virus (A/tern/Australia/1/04(H2N5)).
Test [25] deals with HLA-A*01:01. The test is described as above. Conditions: source organism: Influenza A virus (A/tern/Australia/1/04(H2N5)).
A further test concerns the target HLA-B*44:02. Described as above. Conditions: source organism: Influenza A virus (A/tern/Australia/1/04(H2N5)).
The next test deals with HLA-A*02:06. The test is described as above. Conditions: source organism: Influenza A virus(A/swine/Henan/2/2004(H9N2)).
The mark [26] stands for this setting: source organism: West Nile virus strain PTRoxo.
The mark [27] stands for this setting: source organism: Influenza A virus (A/tern/Australia/1/04(H2N5)).
Setting [28] is: source organism: Influenza A virus(A/swine/Henan/2/2004(H9N2)).

Regarding MTRGLLGSY, the Kd is ≥ 20 µM in the test with HLA-B*40:01 (setting [26]); 0.173 µM with HLA-A*80:01; ≥ 20 µM in the test with HLA-A*02:19 (setting [26]); ≥ 20 µM in the test with HLA-A*02:01 [1] (setting [26]); ≥ 20 µM with HLA-B*07:02 [2] (setting [26]); 0.009 µM in the test with HLA-A*25:01 [3]. The Kd in the test with HLA-A*29:02 [4] is 0.099 µM; with HLA-B*51:01 [5], ≥ 20 µM; with HLA-A*02:11 (setting [26]), ≥ 20 µM; with HLA-A*02:12 (setting [26]) it was ≥ 20 µM; with HLA-A*02:03 (setting [26]), ≥ 20 µM; with HLA-B*58:01 [6] (setting [26]), ≥ 20 µM. Further, in the test with HLA-A*01:01 [7], the dissociation constant Kd amounted to 0.519 µM.
As to GMGEAAAIF, the values for the Kd in the test with HLA-B*15:02 and in the test with HLA-B*46:01 (source organism: Dengue virus 1 Singapore/S275/1990) were 0.158 µM and ≥ 20 µM, respectively.
On to RPPYSSYGY, for which the concentration for half-maximal inhibition (IC50) in the test with HLA-B*35:01 was 0.0907 µM; with HLA-B*40:02 it was ≥ 20 µM; in the test with HLA-A*24:02 [8] it was ≥ 20 µM; in the test with HLA-A*02:01 [9], ≥ 20 µM; with HLA-B*07:02 [10], ≥ 20 µM; with HLA-B*18:01 [11], ≥ 20 µM. The IC50 with HLA-A*03:01 [12] is ≥ 20 µM; with HLA-A*31:01, ≥ 20 µM; with HLA-A*68:02, ≥ 20 µM; in the test with HLA-A*25:01 [13] it was ≥ 20 µM; with HLA-A*29:02 [14], 0.252 µM; with HLA-B*14:02 it was ≥ 20 µM. Besides, the IC50 with HLA-B*08:01 [15], with HLA-B*51:01 [16], in the test with HLA-B*44:03, with HLA-B*53:01, in the test with HLA-A*11:01 [17] and in the test with HLA-B*37:01 was ≥ 20 µM throughout. Further, the 50% inhibitory concentration (IC50) in the test with HLA-A*01:01 [18] and with HLA-B*58:01 [19] was ≥ 20 µM each time. Further, the dissociation constant Kd with HLA-C*14:02 was ≥ 20 µM.
LLTEVETYV: the Kd with HLA-B*15:01 is ≥ 20 µM; in the test with HLA-B*40:01 (setting [27]), ≥ 20 µM; with HLA-A*02:19 (setting [28]), 0.002 µM; with HLA-B*46:01 (setting [27]) it was ≥ 20 µM; with HLA-A*24:02 [20] it was ≥ 20 µM; in the test with HLA-A*02:01 [1] (source organism: Influenza A virus (A/Puerto Rico/8/34/Mount Sinai(H1N1))), 0.012 µM. For the same sequence, the dissociation constant (Kd) was ≤ 0.001 µM with HLA-A*02:16; ≥ 20 µM with HLA-B*07:02 [2] (setting [27]); ≥ 20 µM with HLA-B*18:01 [21]; ≥ 20 µM in the test with HLA-A*03:01 [22]; ≥ 20 µM with HLA-B*08:01 [23]; ≥ 20 µM with HLA-B*27:05. The Kd was ≤ 0.001 µM with HLA-A*02:11 (setting [28]); ≥ 20 µM in the test with HLA-A*11:01 [24]; ≤ 0.001 µM with HLA-A*02:12 (setting [28]); ≥ 20 µM with HLA-A*01:01 [25]; ≤ 0.001 µM with HLA-A*02:03 (setting [28]); ≥ 20 µM with HLA-B*58:01 [6] (setting [27]). Besides, the equilibrium dissociation constant (Kd) in the test with HLA-B*44:02 is ≥ 20 µM; in the test with HLA-A*02:06, ≤ 0.001 µM.

For the origin of these results see the Immune Epitope Database (IEDB).
